Results on 41 sequences are retold here after the nanobody polyreactivity screen of Harvey et al. (2022).

The data set is described as follows: yeast display, Sf9 membrane polyspecificity reagent, FACS + sequencing; frameworks hold sequencing errors. An outline of the steps:
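Synthetic nanobody libraries on Saccharomyces cerevisiae BJ5465 were galactose-induced for 36–48 hours, stained 1 hour at 4 °C with 10% biotinylated, detergent-solubilized Sf9 membrane reagent and enriched on streptavidin microbeads. FACS then separated cells into low and high (top ~1%) gates by anti-HA (expression) and streptavidin (reagent binding) fluorescence. Genes were colony-PCR amplified, MiSeq 2 × 250 sequenced and CDR-length filtered. A clone's polyreactivity label is that of its gate of origin.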
Turning to “QVQLVESGGGLVQAGGSLRLSCAASGRTFYSYVMGWYRQAPGKERELVAAINKTGGGTYYADSVKGRFTISRDNAKNTVYLQMNSLKPEDTAVYYCAAETGTGETRYYRYWDYYYWGQGTQVTVSS”, the “polyreactivity (PSR sort gate)” value is “high polyreactivity”.

Regarding “QVQLVESGGGLVQAGGSLRLSCAASGRTFYTNALGWYRQAPGKERELVAVISRGGTTYYADSVKGRFTISRDNAKNTVYLQMNSLKPEDTAVYYCAKQRPSGDSSSQMGSWGQGTQVTVSS”, the “polyreactivity (PSR sort gate)” value is reported as “low polyreactivity”.

Take “QVQLVESGGGLVQAGGSLRLSCAASGRTFYTNAMGWYRQAPGKERELVAAITRGGSTYYADSVKGRFTIPRDNAKNTVYLQMYSLKPEDTAVYYCAAAYASSWRQRVTSEKGYYWGQGTQVTVSS”: the “polyreactivity (PSR sort gate)” value is “high polyreactivity”.

As for “QVQLVESGGGLVQAGGSLRLSCAASGRTFYTNAMGWYRQAPGKERELVAVISRGGTTYYADSVKGRFTISRDNAKNTVYLQMNSLKPEDTAVYYCAKQRPSGESSSQMGSWGQGTQVTVSS”, the “polyreactivity (PSR sort gate)” value was “low polyreactivity”.

As for “QVQLVESGGGLVQAGGSLRLSCAASGRTFYTYAMGWYRPAPGKERELVASISSGGNTNYADSVKGRFTISRDNAKNTVYLQMNSLKPEDTAVYYCAASYLKRRGYWGQGTQVTVSS”, the “polyreactivity (PSR sort gate)” value was “low polyreactivity”.

Turning to “QVQLVESGGGLVQAGGSLRLSCAASGRTFYTYAMGWYRQAPGKDREFVAVISGRGARTYYADSVKGRFTISRDNAKNTVYLQMNSLKPEDTAVYYCAAVPPRKDYQHMDYWGQGTQVTVSS”, the “polyreactivity (PSR sort gate)” value is on record as “low polyreactivity”.

As to “QVQLVESGGGLVQAGGSLRLSCAASGRTFYTYAMGWYRQAPGKERELVAAITRRGGSTFYADSVKGRFTISRDNAKNTVYLQMNSLKPEDTAVYYCAARSTVGPQYGVRFNYWGQGTQVTVSS”, the “polyreactivity (PSR sort gate)” value was “high polyreactivity”.

“QVQLVESGGGLVQAGGSLRLSCAASGRTFYTYAMGWYRQAPGNERELVATISSGGGRTYYADSVKGRFTISPDNAKKTVYLQRNSLNPEDTAVYYCAADKWENRYHAVSDTRPRDYWGQGTQVTVSS”: the “polyreactivity (PSR sort gate)” value is given as “low polyreactivity”.

Regarding “QVQLVESGGGLVQAGGSLRLSCAASGRTFYVNAMGWYRQAPGKERELVARISSSGITYYADSVKGRFTISRDNAKNSVSLQMNSLKPEDTAVYYCAAGPWFYYWGLGTQVTVSS”, the “polyreactivity (PSR sort gate)” value is recorded as “low polyreactivity”.

In the case of “QVQLVESGGGLVQAGGSLRLSCAASGRTFYVNAMGWYRQAPGKERELVARITSGGSTYYADSVKGRFTISRDKAKNTVYLQMNSVKPEDTAVYYCAADYVSLSVFSYWAWYDYWGQGTQVTVSS”, the “polyreactivity (PSR sort gate)” value is “low polyreactivity”.

On to “QVQLVESGGGLVQAGGSLRLSCAASGRTFYVNDMGWYRQAPGKERELVAAISYRGGSTYYADSVKGRFTISRDNAKNTVYLQMNSLKPEDTAVYYCAAELTYRYRFYYLYSMYYWGQGTQVTVSS”, for which the “polyreactivity (PSR sort gate)” value is given as “low polyreactivity”.

As to “QVQLVESGGGLVQAGGSLRLSCAASGRTFYVNTMGWYRPAPGKEREFVAAITWRDGSTYYADSVKGRFTISRDNAKNTVYPQMNSLKPEDTAVYYCAARNSHDGYYDEYYYWGQGTQVTVSS”, the “polyreactivity (PSR sort gate)” value is “low polyreactivity”.

“QVQLVESGGGLVQAGGSLRLSCAASGRTFYVYAMGWYRQAPGKERELVAAIDFSSTSTYADSVKGRFTISRDNAKNTVYLQMNSLKPEDTAVYYCNVDPDLGGFDYWGQGTQVTVSS”: the “polyreactivity (PSR sort gate)” value is given as “low polyreactivity”.

For the sequence “QVQLVESGGGLVQAGGSLRLSCAASGRTFYVYAMGWYRQAPGKERELVAAISQDDGGTYYADSVKGRFTISRDNAKNTVYLQMNSLKPEDTAVYYCAAKEWRYGYDYGYWGQGTQVTVSS”, the “polyreactivity (PSR sort gate)” value is on record as “low polyreactivity”.

As for “QVQLVESGGGLVQAGGSLRLSCAASGRTFYVYDMGWYRQAPGKERELVAVISSSGSTNYADSVKGRFTISRDNAKNTVYLQMNSLKPEDTAVYYCNRRRWYFFSLDYWGQGTQVTVSS”, the “polyreactivity (PSR sort gate)” value is on record as “high polyreactivity”.

Take “QVQLVESGGGLVQAGGSLRLSCAASGRTFYVYVMGWYRQAPGKEREFVAAINYGSTYYADSVKGRFTISRDNAKNTVYLQMNSLIPEDTAVYYLGQGTQVTVSS”: the “polyreactivity (PSR sort gate)” value was “low polyreactivity”.

Take “QVQLVESGGGLVQAGGSLRLSCAASGRTFYWYAMGWYRQAPGKERELVAGISSGGGTYYADSVKGRFTISRDNAKNTVYLQMNSLKPEDTAVYYCAAAWENIWVWQEYIEYDYWGQGTQVTVSS”: the “polyreactivity (PSR sort gate)” value is “low polyreactivity”.

For “QVQLVESGGGLVQAGGSLRLSCAASGRTFYWYTMGWYRQAPGKERELVAAISTRGVRTYYADSVKGRFTISRDNAKNTVYLQMNSLKPEDTAVYYGNDEYNPPYYTSHDDSDYWGQGTHVTVSS”, the “polyreactivity (PSR sort gate)” value is given as “low polyreactivity”.

Regarding “QVQLVESGGGLVQAGGSLRLSCAASGRTFYYNAMGWSRQAPGKEREFVARITRSGTNTYYADSVKGRFTISRDNAKNTVYLQMNSLKPEDTAVYYCARRGTSSYRRYWLDSASNMDYWGQGTQVTVSS”, the “polyreactivity (PSR sort gate)” value is given as “high polyreactivity”.

With “QVQLVESGGGLVQAGGSLRLSCAASGRTFYYNAMGWYRQAPGKERELVAAISWSGGRTYYADSVKGRFTISRDNAKNTVYLQMNSLKPEDTAVYYCAATGFYSSHYHLDYWGQGTQVTVSS”, the “polyreactivity (PSR sort gate)” value is recorded as “high polyreactivity”.

For “QVQLVESGGGLVQAGGSLRLSCAASGRTFYYNAMGWYRQAPGKERELVAAITSAGSTNYADSVKGRFTISRDNAKNTVYLQMNSLKPEDTAVYYCAARYFYRSAWGTFVKNDSWGQGTQVTVSS”, the “polyreactivity (PSR sort gate)” value is listed as “high polyreactivity”.

As for “QVQLVESGGGLVQAGGSLRLSCAASGRTFYYNGMGWYRQAPGKERELVAAITSGGTTSYADSVKGRFTISRDNAKNTVYLQRNSLKPEDTAVYYCNADYWAVNYDYWGQATQVTVSS”, the “polyreactivity (PSR sort gate)” value is “low polyreactivity”.

With “QVQLVESGGGLVQAGGSLRLSCAASGRTFYYNTMGWYRQAPGKERELVAAITSRGSTYADSVKGRFTISRDNAKNTVYLQMNSLKPEDTAVYYCAAVWRYGSWYSGRLYEYWGQGTQVTVSS”, the “polyreactivity (PSR sort gate)” value was “high polyreactivity”.

“QVQLVESGGGLVQAGGSLRLSCAASGRTFYYNTMGWYRQAPGKERELVASITSGSSTYYADSVKGRFTISRDNAKNTVYLQMNSLKPEDTAVYYCAVYRRYSVKYHYGYWGQGTQVTVSS”: the “polyreactivity (PSR sort gate)” value was “high polyreactivity”.

“QVQLVESGGGLVQAGGSLRLSCAASGRTFYYNTMGWYRQAPWKEWELVAAISWRTGSTYYADSVKGRFSISRDNAKNTVYLQMKSLKPEDTAVYYCAAVLFGYPRTIGTWYDRYYYWGQGTQVTVSS”: the “polyreactivity (PSR sort gate)” value is on record as “high polyreactivity”.

As for “QVQLVESGGGLVQAGGSLRLSCAASGRTFYYSMGWYRQAPGKERYADSVKGRFTISRDNAKNTVYLQMNSLKPEDTAVYYCSAKVPEPPSLDESDYWGQGTQVTVSS”, the “polyreactivity (PSR sort gate)” value is “low polyreactivity”.

For the sequence “QVQLVESGGGLVQAGGSLRLSCAASGRTFYYYAMGWYRQAPGKERELVAAITSGGSTKYADSVKGRFTISRDNAKNTVYLQMNSLKPEDTAVYYCAKRYFSSSRYYYWGQGTQVTVSS”, the “polyreactivity (PSR sort gate)” value is “high polyreactivity”.

On to “QVQLVESGGGLVQAGGSLRLSCAASGRTFYYYAMGWYRQAPGKERELVASISRRGGSTYYADSVKGRFTISRDNAKNTVYLQMNSLKPEDTAVYYCAASHYHGYSRMDYWGQGTQVTVSS”, for which the “polyreactivity (PSR sort gate)” value is recorded as “high polyreactivity”.

Regarding “QVQLVESGGGLVQAGGSLRLSCAASGRTFYYYAMGWYRQAPGKERELVASISSSGRTYYADSVKGRFTISRDNAKNTVYLQMNSLKPEDTAVYYCAKVWSSSYYRYGYWGQGTQVTVSS”, the “polyreactivity (PSR sort gate)” value is listed as “high polyreactivity”.

With “QVQLVESGGGLVQAGGSLRLSCAASGRTFYYYAMGWYRQAPGKEREMVATISGGSSTNYADSVKWRFTISRDNAKNTVYLQMNSLKPEDTAVFYCAARWWRGGGYRPNYYKLKYDYWGQGTQVTVSS”, the “polyreactivity (PSR sort gate)” value is “high polyreactivity”.

Turning to “QVQLVESGGGLVQAGGSLRLSCAASGRTFYYYDMGWYRQAPGKERELVAAISASGGSTYYADSVKGRFTISRDNAKNTVYLPMNSLKPDDTAVYYCAATLYHYWYSDFDYWGQGTQVTVSS”, the “polyreactivity (PSR sort gate)” value is “high polyreactivity”.

Regarding “QVQLVESGGGLVQAGGSLRLSCAASGRTFYYYGMGWYRQAPGKERELVATISWSGGSTYYADSVKGRFTISRDNAKNTVYLQMNSLKPEDTAVYYSAADGQFLYDHIEVDYWGQATQVTVSS”, the “polyreactivity (PSR sort gate)” value is listed as “low polyreactivity”.

Regarding “QVQLVESGGGLVQAGGSLRLSCAASGRTFYYYTMGWYRQAPGKERELVAAIRGSGRTYYADSVKGRFTISRDNAKNTVYLQMNSLKPEDTAVYYCAAETGYTIRYDYWGQGTQVTVSS”, the “polyreactivity (PSR sort gate)” value was “high polyreactivity”.

As to “QVQLVESGGGLVQAGGSLRLSCAASGRTFYYYYTMGWYRQAPGKERELVAAISRSGSTNYADSVKGRFTISRDNAKNSVYLQMNSLKPEDTAVYYCAKETNRVGRYQWGQGTQVTVSS”, the “polyreactivity (PSR sort gate)” value is listed as “low polyreactivity”.

For the sequence “QVQLVESGGGLVQAGGSLRLSCAASGRTFYYYYTMGWYRQAPGKERELVAAISRSGSTNYADSVKGRFTISRDNAKNTVYLQMNSLKPEDTAVYYCAKETNRVGRYHCGQGTQVTVSS”, the “polyreactivity (PSR sort gate)” value was “low polyreactivity”.

Consider “QVQLVESGGGLVQAGGSLRLSCAASGRTIAAYAMGWYRQAPGKERELVAAISRSGGSTYYADSVKGRFTISRDNAKNTVYLQMNSLKPEDTAVYYCAAQRQYGKFDYWGQGTQVTVSS”, for which the “polyreactivity (PSR sort gate)” value was “high polyreactivity”.

“QVQLVESGGGLVQAGGSLRLSCAASGRTIASYAMGWYRQAPGKERELVAAITSGGSTYYADSVKGRFTISRDNAKNTVYLQMNSLKPEDTAVYYCARIHAIWRGYDYWGQGTQVTVSS”: the “polyreactivity (PSR sort gate)” value was “low polyreactivity”.

In the case of “QVQLVESGGGLVQAGGSLRLSCAASGRTIASYTMGWYRPAPGKERELVAAISKSGGSTYYADSVKGRFTISRDNAKNTVYLQMNSLKPEDTAVYYCAKRRSGNVRKYDYWGQGTQVTVSS”, the “polyreactivity (PSR sort gate)” value is given as “high polyreactivity”.

With “QVQLVESGGGLVQAGGSLRLSCAASGRTIASYTMGWYRQAPGKERELVAAISKSGGSTYYADSVKGRFTISRDNAKNTVYLQMNSLKPEDTAVYYCAAGVPFWFWFEMDYWGQGTQVTVSS”, the “polyreactivity (PSR sort gate)” value is reported as “high polyreactivity”.

On to “QVQLVESGGGLVQAGGSLRLSCAASGRTIFYYAMGWYRQAPGKERELVATITKRGGSTYYADSVKGRFTISRDNAKNTVYLQMNSLKPEDTALYYCAARFVGWRGGRAYYYWGQGTQVTVAS”, for which the “polyreactivity (PSR sort gate)” value was “high polyreactivity”.

Turning to “QVQLVESGGGLVQAGGSLRLSCAASGRTIGPYAMGWYRQAPRKERELVAAISWSVGSTYYADSVKGRFTISRDNAKNTVYLQMNSLKPVDTAVYFCGAVYYSHVYYWGQGTQVTVSS”, the “polyreactivity (PSR sort gate)” value is “high polyreactivity”.
